What was measured:
[1] = test system: RCA; settings: Yeast Two-Hybrid, AtPNP-A lacking the signal peptide; cited from earlier work
[2] = test system: plant leaves; design: method as in 2 sources, ref 13, 20 = [13]; PMID 21550130; doi:10.1016/j.jplph.2011.03.011; 13. Ruzvidzo O. Donaldson L. Valentine A. Gehring C. The Arabidopsis thaliana natriuretic peptide AtPNP-A is a systemic regulator of leaf dark respiration and signals via the phloem J. Plant Physiol. || [20]; PMID 19015524; doi:10.1073/pnas.0810107105; 20. Gottig N. Garavaglia B.S. Daurelio L. Valentine A.J. Gehring C. Orellano E.G. Ottado J. Xanthomonas axonopodis pv. citri uses a plant natriuretic peptide-like protein to modify host homeostasis Pr ||| ref 20 = [20]; PMID 19015524; doi:10.1073/pnas.0810107105; 20. Gottig N. Garavaglia B.S. Daurelio L. Valentine A.J. Gehring C. Orellano E.G. Ottado J. Xanthomonas axonopodis pv. citri uses a plant natriuretic peptide-like protein to modify host homeostasis Pr; settings: cited from earlier work
From the text: In the host–pathogens ‘arms race’, bacteria may acquire ‘eukaryotic-like’ genes from their hosts through horizontal gene transfer. […] Tobacco (Nicotiana tabacum) RCA gene is involved in resistance to herbivory, and its down-regulation impaired JA signaling and led to reduced defense against both generalist (Spodoptera littoralis) and specialist (Manduca sexta) herbivore elicitation ...

[3] = test system: Rubisco activase (RCA); assay: Affinity isolation with LC-MS/MS; type: binding, Arabidopsis thaliana; settings: pAtPNP-A bait vs pScr control
Method: Isolation of putative interactors of AtPNP-A was performed as described previously with minor modifications. For each sample, 5 g of plant material was used, no cross-linker was applied, the supernatant was incubated either with the N-terminally biotinylated pAtPNP-A or pScr (negative control) for 15 min. The protein extract mixture was incubated with Dynabeads M-280 (Life Technologies, Singapore) for 30 min. Eluted proteins were separated by SDS-PAGE (10% gels run for 15 min at 100V) and bands visualized with Coomassie Brilliant Blue (Figure S1). Bands were excised for trypsin in-gel digestion of proteins. MS analyses were performed on linear trap quadrupole (LTQ) Orbitrap Velos mass spectrometer (Thermo Scientific, Waltham, MA, USA) under conditions previously described. Scaffold version 4.11.1 (Proteome Software Inc.) was used to validate MS/MS based peptide and protein identification. […] Relative quantification of total spectrum counts of proteins identified with a confidence level of at least 99% at FDR < 0.1 in each sample containing pAtPNP-A or pScr (negative control) from three independent experiments was performed using Scaffold. […] The quantification file as well as the raw data are available via ProteomeXchange with identifier PXD023216, and the MS information is integrated in Supplementary Tables S1–S6.

[4] = test system: Pst DC3000; design: method as in PMID 32409317; settings: exogenous application; cited from earlier work
From the text: Tobacco (Nicotiana tabacum) RCA gene is involved in resistance to herbivory, and its down-regulation impaired JA signaling and led to reduced defense against both generalist (Spodoptera littoralis) and specialist (Manduca sexta) herbivore elicitation ...

B1: AtPNP-A: Arabidopsis thaliana PNP, termed AtPNP-A (At2g18660; Q9ZV52) (protein)
chain: AQGKAVYYDPPYTRSACYGTQRETLVVGVKNNLWQNGRACGRRYRVRCIGATYNFDRACTGRTVDVKVVDFCREPCNGDLNLSRDAFRVIANTDAGNIRVVYTPI
modifications: left off: His6, N-terminal, kept
[1]
  Interaction with RCA: strong interactor
[2]
  Leaf photosynthetic rates and apparent photon yield: modulate leaf photosynthetic rates and apparent photon yield
[2]; treatment of plant leaves
  Leaf dark respiration rates: triggers increase in leaf dark respiration rates
  Leaf photosynthetic rates and efficiency of light utilization: regulates leaf photosynthetic rates and efficiency of light utilization during photosynthetic CO2 fixation
  Leaf transpiration rates: higher leaf transpiration rates
  Starch in guard cell chloroplasts: induces starch reduction in guard cell chloroplasts
  Stomatal conductance and stomatal opening: increases stomatal conductance and stomatal opening
[3]
  Identification of RCA as interactor: identified with high confidence
[4]
  Susceptibility to Pst DC3000: enhanced susceptibility to Pst DC3000

— publication PMC7823470, “Arabidopsis Plant Natriuretic Peptide Is a Novel Interactor of Rubisco Activase” (Life, 2020)
